Results from patent US8551493B2, “Peptide with reduced dimer formation” (Circassia Limited, priority 2007, dated 2013).
Where no end group is shown, it is not given here. [ ]: non-standard residue; d: D form. Abu = CC[C@H](N)C(=O)O

Tests used:
[1] = Dimer formation of individual peptides and binary peptide mixtures, RP-HPLC; format: physicochemical
Description: The peptides used in this study have a minimum purity of >90%. The effectiveness of each additive to reduce dimer formation was assessed by size exclusion chromatography (SEC) and RP-HPLC. In SEC, molecules are separated based upon their apparent molecular weight. Smaller molecules can distribute into a greater proportion of the column matrix and are retained for longer than analytes of higher molecular weight. Dimers will elute from the column with an apparent molecular weight approximately twice that of the corresponding monomers. Separation by RP-HPLC separates species based on differences in their hydrophobicities. The amount of dimer formed is determined as a percentage of the total peak area ratio (% PAR) for the chromatogram.
Following the generation of data from the preliminary screening a further piece of work was undertaken to evaluate the ability of matrices containing Cysteine hydrochloride and 1-thioglycerol to inhibit the propensity of individual cysteine containing peptides and mixed pairs of these peptides to dimerize compared to the matrix alone. For each excipient mixtures of all the possible binary peptide combinations were prepared. […] The amount of dimer formed is determined as a percentage of the total peak area ratio (% PAR) for the chromatogram in each case.

PBMCs [2] = test: IL10 production assay in house dust mite allergic individuals (FIG. 1); format: cell-based, human; conditions: population of 34 house dust mite allergic individuals
Description: A typical cytokine release assay requires 40×10^6 PBMC's per subject. In more detail, 250 μl of a 200 μg/ml solution of the appropriate antigen or peptide concentration is distributed into the appropriate wells of 48 well plates. Plates are the incubated in a humidified 5% CO2 incubator at 37° C. for a maximum of 4 hours. 250 μl of a 5×10^6 cell/ml PBMC suspension is then added to each well and the plates returned to the incubator for 5 days. Following stimulation, samples of culture supernatant are harvested for testing by ELISA or multiplex bead assay according to standard protocols.

PBMCs [3] = test: Cytokine release assay (IFN-γ, IL-13) on PBMCs from house dust mite allergic individuals; format: cell-based, human; conditions: number of responders, N = 55 house dust mite allergic individuals; positive = at least 100 pg/ml of cytokine
From the text: The following Table presents results from a cytokine release assay performed on PBMCs taken from a population of house dust mite allergic individuals (N=number of individuals in population). A positive response is considered to be production of at least 100 pg/ml of cytokine.

PBMCs [4] = test: IFN-gamma production by PBMCs from ragweed allergic individuals (FIG. 2); format: cell-based, human; conditions: PBMCs from a population of ragweed allergic individuals
Description: Using methods equivalent to those in Example 2, these peptides were tested for the ability to induce cytokine production in PBMCs taken from a population of ragweed allergic individuals.

PBMCs [5] = test: IL-10 cytokine release assay on PBMCs from seven ragweed allergic individuals; format: cell-based, human; conditions: for IL-10: ragweed allergic, PBMC supernatant
From the text: The following Table presents results from a cytokine release assay performed on PBMCs taken from seven ragweed allergic individuals (A-G).

[6] = T = 0, Control matrix, individual peptide sample
[7] = T = 0, Control matrix, mixed sample MLA01 and MLA05
[8] = T = 1 week, 25° C./60% RH, Control matrix, individual peptide sample
[9] = T = 1 week, 25° C./60% RH, Control matrix, mixed sample MLA01 and MLA04
[10] = T = 1 week, 25° C./60% RH, Control matrix, mixed sample MLA01 and MLA05
[11] = T = 1 week, 25° C./60% RH, Control matrix, mixed sample MLA01 and MLA12
[12] = T = 1 week, 25° C./60% RH, Cysteine matrix, mixed sample MLA01 and MLA12
[13] = T = 72 h, Control matrix, individual peptide sample
[14] = T = 72 h, Control matrix, mixed sample MLA01 and MLA04
[15] = T = 72 h, Control matrix, mixed sample MLA01 and MLA05
[16] = T = 72 h, Control matrix, mixed sample MLA01 and MLA12
[17] = T = 1 week, 25° C./60% RH, Control matrix, mixed sample MLA04 and MLA05
[18] = T = 1 week, 25° C./60% RH, Control matrix, mixed sample MLA04 and MLA12
[19] = T = 72 h, Control matrix, mixed sample MLA04 and MLA05
[20] = T = 72 h, Control matrix, mixed sample MLA04 and MLA12
[21] = T = 1 week, 25° C./60% RH, Control matrix, mixed sample MLA05 and MLA12
[22] = T = 72 h, Control matrix, mixed sample MLA05 and MLA12

CPAVKRDVDLFLT (listed as Felis catus) [MLA01, derived from cat allergen Fel d1]
Percentage peak area ratio (% PAR), dimers formed [1, 6]: 3.85 % PAR | Percentage peak area ratio (% PAR), dimers formed ([1]; T = 0, Control matrix, mixed sample MLA01 and MLA04): 2.92 % PAR | Percentage peak area ratio (% PAR), dimers formed [1, 7]: 2.73 % PAR | Percentage peak area ratio (% PAR), dimers formed ([1]; T = 0, Control matrix, mixed sample MLA01 and MLA12): 2.7 % PAR | Percentage peak area ratio (% PAR), dimers formed ([1]; T = 0, Cysteine matrix, individual peptide sample): 0.49 % PAR | Percentage peak area ratio (% PAR), dimers formed ([1]; T = 0, Cysteine matrix, mixed sample MLA01 and MLA04): 0.48 % PAR | Percentage peak area ratio (% PAR), dimers formed ([1]; T = 0, Cysteine matrix, mixed sample MLA01 and MLA05): 0.73 % PAR | Percentage peak area ratio (% PAR), dimers formed ([1]; T = 0, Cysteine matrix, mixed sample MLA01 and MLA12): 0.2 % PAR | Percentage peak area ratio (% PAR), dimers formed [1, 8]: 66.81 % PAR | Percentage peak area ratio (% PAR), dimers formed [1, 9]: 39.49 % PAR | Percentage peak area ratio (% PAR), dimers formed [1, 10]: 45.59 % PAR | Percentage peak area ratio (% PAR), dimers formed [1, 11]: 40.03 % PAR | Percentage peak area ratio (% PAR), dimers formed ([1]; T = 1 week, 25° C./60% RH, Cysteine matrix, mixed sample MLA01 and MLA04): 0.52 % PAR | Percentage peak area ratio (% PAR), dimers formed ([1]; T = 1 week, 25° C./60% RH, Cysteine matrix, mixed sample MLA01 and MLA05): 0.26 % PAR | Percentage peak area ratio (% PAR), dimers formed [1, 12]: 0.23 % PAR | Percentage peak area ratio (% PAR), dimers formed [1, 13]: 43.81 % PAR | Percentage peak area ratio (% PAR), dimers formed [1, 14]: 35.47 % PAR | Percentage peak area ratio (% PAR), dimers formed [1, 15]: 41.11 % PAR | Percentage peak area ratio (% PAR), dimers formed [1, 16]: 29.62 % PAR

HDM203B: house dust mite Der p1 derived peptide of the HDM203 family tested for IL10 production (DLRQMRTVTPIRMQGGSGS; HDM203B* synthetic peptide)
IL10 production, engineered versus non-engineered peptides (PBMCs [2]): not significantly different

KALPVVLENARILKNCV (listed as Felis catus) [MLA04, derived from cat allergen Fel d1]
Percentage peak area ratio (% PAR), dimers formed [1, 8]: 4.76 % PAR | Percentage peak area ratio (% PAR), dimers formed [1, 9]: 2.71 % PAR | Percentage peak area ratio (% PAR), dimers formed [1, 17]: 2.32 % PAR | Percentage peak area ratio (% PAR), dimers formed [1, 18]: 2.42 % PAR | Percentage peak area ratio (% PAR), dimers formed [1, 13]: 2.51 % PAR | Percentage peak area ratio (% PAR), dimers formed [1, 14]: 1.32 % PAR | Percentage peak area ratio (% PAR), dimers formed [1, 19]: 0.91 % PAR | Percentage peak area ratio (% PAR), dimers formed [1, 20]: 0.44 % PAR

NAQRFGISNYBQI (NAQRFGISNY[Abu]QI) [HDM102B, B=2-aminobutyric acid]
Responders with IFN-g >100 (PBMCs [3]): 15 | Responders with IL-13 >100 (PBMCs [3]): 17

NAQRFGISNYCQI [HDM102]
Responders with IFN-g >100 (PBMCs [3]): 16 | Responders with IL-13 >100 (PBMCs [3]): 13

NAQRFGISNYSQI [HDM102A]
Responders with IFN-g >100 (PBMCs [3]): 14 | Responders with IL-13 >100 (PBMCs [3]): 16

NYBQIYPPNVNKIREA (NY[Abu]QIYPPNVNKIREA) [HDM101B, B=2-aminobutyric acid]
Responders with IFN-g >100 (PBMCs [3]): 1 | Responders with IL-13 >100 (PBMCs [3]): 2

NYCQIYPPNVNKIREA [HDM101]
Responders with IFN-g >100 (PBMCs [3]): 2 | Responders with IL-13 >100 (PBMCs [3]): 1

NYSQIYPPNVNKIREA [HDM101A]
Responders with IFN-g >100 (PBMCs [3]): 4 | Responders with IL-13 >100 (PBMCs [3]): 4

RFGISNYBQIYPPNVNK (RFGISNY[Abu]QIYPPNVNK) [HDM100B, B=2-aminobutyric acid]
Responders with IFN-g >100 (PBMCs [3]): 6 | Responders with IL-13 >100 (PBMCs [3]): 10

RFGISNYCQIYPPNVNK [HDM100]
Responders with IFN-g >100 (PBMCs [3]): 6 | Responders with IL-13 >100 (PBMCs [3]): 6

RFGISNYSQIYPPNVNK [HDM100A]
Responders with IFN-g >100 (PBMCs [3]): 10 | Responders with IL-13 >100 (PBMCs [3]): 8

RGW02: engineered (modified) peptide derived from ragweed pollen major allergen Amb a 1 (GSSQIWIDHSSLSKS; RGW02* synthetic peptide)
IFN-gamma production compared with the non-engineered peptide (PBMCs [4]): does not induce significantly different responses | IL-10 (PBMCs [5]; Subject A): 248.91 pg/mL | IL-10 (PBMCs [5]; Subject B): 227.18 pg/mL | IL-10 (PBMCs [5]; Subject C): 452.45 pg/mL | IL-10 (PBMCs [5]; Subject D): 80.54 pg/mL | IL-10 (PBMCs [5]; Subject E): 310.34 pg/mL | IL-10 (PBMCs [5]; Subject F): 203.12 pg/mL | IL-10 (PBMCs [5]; Subject G): 283.75 pg/mL | level of production of IL-10 compared with the original peptide (RGW02A) (PBMCs [5]; seven ragweed allergic individuals (A-G)): not significantly different

RILKNCVDAKMTEEDKE (listed as Felis catus) [MLA05, derived from cat allergen Fel d1]
Percentage peak area ratio (% PAR), dimers formed [1, 6]: 0.55 % PAR | Percentage peak area ratio (% PAR), dimers formed [1, 7]: 0.35 % PAR | Percentage peak area ratio (% PAR), dimers formed [1, 8]: 1.65 % PAR | Percentage peak area ratio (% PAR), dimers formed [1, 10]: 3.18 % PAR | Percentage peak area ratio (% PAR), dimers formed [1, 17]: 3.26 % PAR | Percentage peak area ratio (% PAR), dimers formed [1, 21]: 1.85 % PAR | Percentage peak area ratio (% PAR), dimers formed ([1]; T = 1 week, 25° C./60% RH, Cysteine matrix, individual peptide sample): 0.21 % PAR | Percentage peak area ratio (% PAR), dimers formed [1, 13]: 1.99 % PAR | Percentage peak area ratio (% PAR), dimers formed [1, 15]: 2.21 % PAR | Percentage peak area ratio (% PAR), dimers formed [1, 19]: 2.25 % PAR | Percentage peak area ratio (% PAR), dimers formed [1, 22]: 8.17 % PAR

TAMKKIQDCYVENGLI (listed as Felis catus) [MLA12, derived from cat allergen Fel d1]
Percentage peak area ratio (% PAR), dimers formed [1, 8]: 1.72 % PAR | Percentage peak area ratio (% PAR), dimers formed [1, 11]: 3.43 % PAR | Percentage peak area ratio (% PAR), dimers formed [1, 18]: 2.13 % PAR | Percentage peak area ratio (% PAR), dimers formed [1, 21]: 1.28 % PAR | Percentage peak area ratio (% PAR), dimers formed [1, 12]: 0.18 % PAR | Percentage peak area ratio (% PAR), dimers formed ([1]; T = 1 week, 25° C./60% RH, Cysteine matrix, mixed sample MLA04 and MLA12): 0.32 % PAR | Percentage peak area ratio (% PAR), dimers formed [1, 13]: 0.46 % PAR | Percentage peak area ratio (% PAR), dimers formed [1, 16]: 2.09 % PAR | Percentage peak area ratio (% PAR), dimers formed [1, 20]: 1.1 % PAR | Percentage peak area ratio (% PAR), dimers formed [1, 22]: 9.78 % PAR | Percentage peak area ratio (% PAR), dimers formed ([1]; T = 72 h, Cysteine matrix, mixed sample MLA01 and MLA12): 0.1 % PAR | Percentage peak area ratio (% PAR), dimers formed ([1]; T = 72 h, Cysteine matrix, mixed sample MLA04 and MLA12): 0.33 % PAR
